Measured values reported in the NTF2 design screens of Basanta et al. (2020).

assay: protease stability score; higher = more stable; yeast display proteolysis, trypsin and chymotrypsin;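 further: relative to predicted unfolded state with 0 unfolded-like and 1 meaning tenfold more protease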

| Sequence | protease stability score |
| --- | --- |
| DEIEREAKHVVHLLIHALLTGDERLFEELVDPDARLVINGRHYHGREEVNLAMKEWRLHRFEIKDFQYEWQGNKIISRIHTREDGHVDGQRVETRSELVIFLVKINGRWRMEFVEFRFS | 2.42 |
| SEEDKLMRDIERLVLEWLETGDEDALKKMLDPHVRVEFNGVERIGMDELARLLKHLRFDHIHIRNSRVINGVIHIDGHIDGTINGRRVRHDLEVRIIIVNGRFKEIILIDR | 1.21 |
| DDIEEILRRMTELFWRALATGDEREERELADPHVRLDVNGRTYHGMEKVREWYRRIDHHHFETWHYHHIEFQGEKVYIEGRMRVNLDINGQELRIDTFTIILMLVINGRIHRFQYQVH | 0.467 |
| SEDEEHWRKTINLLIIAIRTGNEDLFWKLLDPNTRFEVDIGDKMIDLHGREKVAEWLHRFIHKIPNLKIHIREIEFNENETRIHGETHFDGKTRTVEIIIELVDGRMKEFIFIVK | 2.16 |
| DEDRKHWETLLKIAFHLFRTGDEEKWERMFDPHARLHINGKDIHGREDIVHFLQEHLDHLWIEDVKVERMSVYNGVLHVDIRIHYRQGDKVYDVESSIDNIVIDGKSHRIRFDFH | 1.26 |
| DEDEQFWRNLAEEFMRALETGDEERMQELFDPHARLDIDGRRFHGWDTVIKFFEDLLKHLGITRIEFVYRRVRVINGVFHIEGEINVDGQTRDSRIENIVVDGKSQELRFNHR | 0.298 |
| SKDEKTLSHFIKFLEDVEKTGNFEDFYELMDPDAKLVVNGVEHHGRDEFTRFIKEFMDRVDHIHYTDVHHIILQGDKVIIDAKVRGVWDGVERELRVKIIIVKINGRWYLKSFEEE | 1.87 |
| SEDQEIAVKLLHEMMEALRTGDEDYLRRLFDPNMRFNQGDKTHHGMDWVHSFLRRYDYFEVRHVRVHHVEVQGEKIIIDGRLEGSIRVDGVLQENEISVIFIIIKINGKWFVQTIRFN | 1.21 |
| DEEERDMKHSSERLLRTWVTGDEDLLRTLADPDARHHLEVDGVHLHLHGMEHFSKWTTDLIEKLGIKHFDMKDLDVQGDKIHVHSTFHYGDKTFEVRLIVVKIDGKWLLSHSSFIVR | 0.299 |
| DEDKKFIDEYLKLLEDSIETGDWRNHNELLDPNALVLVNGVELHGRELAVTHTEKFLKHMGVKHYRLHEVDIQGEKVHIHSKAHVDGRTFDLEFISHKIDGRWLMSEVRIREN | 1.24 |
| DEEEEEARIAVDMFRRTVETGDEELLRKMIDPHVRMHVGDKDLHGRDFAVEIFHKLGVDHFEIRHQRLIGDKVELDIKVNVNGKEMETHSHLEKVNGRWVIRSLDVR | 1.25 |
| SQEEKEIRDWLHILANARLTGDEDWLLKQADPNTRLEFNGVDLVGMEHNIKFLLHLERQHGMRLHNIHIHHVEVQGDKVESDIREDGEVNGRRMIFTSIIIVRKVNGRWILRSFHLH | 1.21 |
| SEEDKEVKFFMERLNHLLLTGDEELIMEMLDPNARMTINGVDTHGRETLSKLWTDKLRHLRLKQIHIHDWRSINGRADNKGHERGFVGDKEDNWESELLFVFVNGRLKSISVHLR | 1.21 |
| HKEHRDAHELLERWLRSSVTGDEDTLSELLDPNVKIEIGNKHVHGREEVSRHFSERAHRIDHVRLHVDDLYIQGEKVHVDLTLEINVGDWRQTIKVEYVVLKVNGRWRIHTIHER | 0.674 |
| HEEHEEAWHEIELTYHLLNTGDFDEMNRLLDPNVRIHIGDKRYHGRHELDLLITKLGVKHVRWEVKHADIQGDKVDMDTIVHITQGDKEIRRDTRIKIRKIDGKWFVTELHVT | 1.28 |
| DEEEHVAWKIMEVFLEDLLTGDEDMLNRMADPHVRVIINGRENHGRESFEEFVRQIRIEDTRLKHVEIRTIGNKIHIYVHGELRLNINGKRIDRKTTWIFVIQKYDGRWILRFILIDIH | 2.31 |
| SEVQESIKEVIEIWNKALETGDWHRLTELADPDTRVEIGDKDIIGREAVTSELEKVTHKFKNLRIDEIHIERLEIQGEKVELHGIIRGTVNGQHRFYHTEFIIVKINGRWRLRVIYFL | 1.79 |
| NHQQIAFHFLWDIVEYLLMTGDEHILEKYADPTVKTLVDGRELHGREDVIRFFHEMFKRIDHIQDVKLHDYRFQGNKVEIDSRIIGTIDGQRDVITVTWRVLKVDGRWLIHTVELH | 1.69 |
| DEEERDAKEARDLLERSMDTGNEDLWKELLDPNMIIHIGDKEIHGMKEWIEFHKERGAETRVEFKDMRMQGNKLILRLNLKVHFDGQTYEHEVTYIVSKVDGVWLVKYIHIH | 0.981 |
| SEEEEEHEELMRLMESTVRTGDFELFEKLADPNVRINIDGKDVHGREEFLEHWVRRWRDLGVNHLRIEHRRVYNGVIIIKVKILVNGREITLHIEARKVDGRWSVHKVEQH | 2.25 |
